Test results as given in publication PMC3776778, “A Fully Human Inhibitory Monoclonal Antibody to the Wnt Receptor RYK” (PLoS ONE, 2013).

Target: T1, recombinant mouse Wnt3a protein (mouse, UniProt P27467 19-352)
T1 construct: recombinant mouse Wnt3a (R&D Systems); the bought protein is probably the mature secreted form (surmise); also called recombinant Wnt3a protein; source: bought: R&D Systems
Experiment: ELISA; competitive ELISA, third round of a screen of a human scFv phage display library: phage clones against recombinant mouse Wnt3a for binding to purified hRYKWD.Fc
Settings: both partners purified

T1 sequence (P27467 19-352): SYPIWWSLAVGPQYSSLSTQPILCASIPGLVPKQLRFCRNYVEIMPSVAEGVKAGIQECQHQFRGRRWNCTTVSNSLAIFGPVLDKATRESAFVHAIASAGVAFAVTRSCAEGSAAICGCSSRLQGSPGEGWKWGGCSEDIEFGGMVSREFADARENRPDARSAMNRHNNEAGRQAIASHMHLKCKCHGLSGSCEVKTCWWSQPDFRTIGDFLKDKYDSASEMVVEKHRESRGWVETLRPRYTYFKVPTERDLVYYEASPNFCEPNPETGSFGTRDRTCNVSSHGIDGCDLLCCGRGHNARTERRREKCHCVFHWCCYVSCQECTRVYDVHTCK

binding result: binds
B1: hRYKWD.Fc (WIF domain of human RYK fused to the Fc.FLAG region of human IgG1) (Fc fusion, UniProt P34925 66-194, looked up)
chain: LYLSEDEVRRLIGLDAELYYVRNDLISHYALSFSLLVPSETNFLHFTWHAKSKVEYKLGFQVDNVLAMDMPQVNISVQGEVPRTLSVFRVELSCTGKVDSEVMILMQLNLTVNSSKNFTVLNFKRRKMC
notes: WIF domain of human RYK, lacking the metalloprotease cleavage site; also called hRYKWD.Fc.FLAG; human RYK WIF domain-only fusion protein
